Assay results: the DeepSol protein solubility set

assay: soluble on expression in E. coli; label from the status in PepcDB or PDB records

Row | Sequence | soluble on expression in E. coli
1 | MGSDKIHHHHHHMDKKTYKLLRTLTHLSKDLYNLTLYTVKQHYELNGTFLPFVKAYHMVKDSEPYKLLPSQVAQQTMKIVERNFRSFFHVLKERKKGNYNRPVRPPKYLPKNGHFILIFPYQSFRVKEDRIILTLGKNFAEKYGVKHLEIPLPKNVKGHRIKEIRILPRYNALWFEVEYVYEVLPEERDLDRSKYLAIDLGLDNFATCVSTTGTAFIIEGRGLKSFNRWWNKEKAKLQSQYDKQGVKFGKRMVWLLKKRKNVVNDFMNKAVSYIVNYCLENGIGNVVIGELKGVKQNTDLGRRNNQNFHYIPYGLFKQKLKAKCERYGINYIEVDEAYTSKVDALTLEPIEKREKYLGKRGETWTVPVFRWCFNKC | not soluble
2 | MGSDKIHHHHHHMDLVEEILRLKEERNAIILAHNYQLPEVQDIADFIGDSLELARRATRVDADVIVFAGVDFMAETAKILNPDKVVLIPSREATCAMANMLKVEHILEAKRKYPNAPVVLYVNSTAEAKAYADVTVTSANAVEVVKKLDSDVVIFGPDKNLAHYVAKMTGKKIIPVPSKGHCYVHQKFTLDDVERAKKLHPNAKLMIHPECIPEVQEKADIIASTGGMIKRACEWDEWVVFTEREMVYRLRKLYPQKKFYPAREDAFCIGMKAITLKNIYESLKDMKYKVEVPEEIARKARKAIERMLEMSK | not soluble
3 | MGSDKIHHHHHHMDPRHRRGARLRHHQRDVARGGSVPARRQAHRRVARGLGEPVFVTHLVFFCGHAGTGKTTLAKRLIGPLMRATGEAFCLLDKDTLYGRYSSAAMGALTSDPNDRDSPLYLKHLRDPEYQGLLDTARENLALGIGALVVGPLSREVRDRRILDRAWLGIGPEIALTVVWVHTAEDVAHQRIVARGNPNDAYKLAHWDEYRQRRFVPTGHECDGIVMFDNTAPSDADIDALLYRIVPPAPQATMVPPLPA | not soluble
4 | MGSDKIHHHHHHMDQQTVLPEQDHDKSAIDELDFSCHSSGNFPGILAGLKLSLVVTSYQAHRLFFVRSNGIQIDVNFKNFVRPMGISVTPQQITLGTLNQVWRFRRSDDALALLDDPHADACYVASACHTTGLINIHDIAYGNKGLWVTNSAFSCLATLEPDYSFVPRWKPDFISALAPEDRCHLNGMALLDGEPAYVTTFNQSDTARSWRDGAKDQGTLINIKTGEQIFSNLTMPHSPRCYNGYVYFCESGHGLVRRYDPRTNEVVDVVKLAGFTRGMDFFGPLMFVGLSKTRFSSVAEPAPIAQQLEESQSGIWCINLTDHSVVGFVRFEGNIDQIYDVAVLSGVMYPELLLPDDELSMSVFNFPPLSYASEN | not soluble
5 | MGSDKIHHHHHHMDRRDFFKTVAITGAAMTIQRSEAMEILTQTINKANGDKPDLVAVMGGEPEAMFRRAISELGGMKQFIKPGQKVVVKPNIGWDKVPELAGNTNPKLITEIIKQCFATGAKEVTVFDHTCDDWQKCYKNSGIEAAAKEAGAKVMPAHLESYYKPVDLPKGQKMKKAKIHEAILNCDVWINVPILKNHGGANLTISMKNHMGIVWDRGFFHQNDLQQCIADICTLEKKAVLNVVDAYRIMKTNGPRGRSASDVVLAKGLFISPDIVAVDTAAAKFFNQIREMPLDTVGHLAKGEALKVGTMDIDKLNVKRIKM | not soluble
6 | MGSDKIHHHHHHMDRYPPFGFVRAVPIASSGNMTGESISNIATALVVGGGIGGMATAISLAERGVTVDLVDLDPEWRVYGAGITITGPTLRAYRRLGMLDEIKHKGAITSKTRLFRYDGTHMLDLDEPVIEEGLPATGGIMRPVLHHIMQKRVRELEIPVRLGLTVDALENVQGGVDVRFSDRTARRYDLVVGADSVFSRVRDLAFAHMGPAQPTGQGCWRISIRKPPGLDMGEFFLGHANPCGITACGPDTVYMWMLTPHVERDSHMDDEELFVTLKALLADFGGNAGWIRDNMTREDWINYRPLAAALQPRDWFNGRIVLVGDAVHATTPHLASGAGMAVESGIVLAEELARAGDVESALRAYQERRFDRCRDVIETSVAVGRLQLEHGDPQVHAKMLEGALGRLNQPF | not soluble
7 | MGSDKIHHHHHHMDSELRKRFNPDGSLLRRQQLRMLELLEVIDVICRKHQIPYWLSSGTLIGAARHKGFIPWDDDLDIEMLRSDYLRLLKVLPQELPDNLALQTNETDPNYIFIYGKLRDKDSHLEETNSYDRIFHYTGIYIDIFPLEKIPYCLAWIGGHMQGQIYNQLNNKNIKESTLYKRIRRIYHFNTRIGFPILRFIAKLFPGKELRHSFGTAYFKPRYTDDIFPLTEMEFEGKMFPVPRQTDAVLRKIYGDYMQLPDLENIHPHYNKLEFYK | not soluble
8 | MGSDKIHHHHHHMDSKSNSELARLEQAARAAWLYYVAKNTQDEIAQKLEVSRQSAQRLVALAVSEGLIKVRLDHPIVKCMELGQQLTQAFNLLECEIVPSDPADDSSVHGLAQCGAGVLERYLKSEQPKTLAFGTGRALKACIDELPSMQCPQHKIVSLLGNMMLDGSASAFDIVVSMANRVQAKHYPMPLPVIATSVAEKQLLHDLAPVKSIFELVIQADATFVGIGHMGAESPLLLDGFINQSQLTELINDNATGEIISWVYNQQGQLLDHSINELVMSSPLRIDSNKPVYGIAAGQHKVDAIFSALQGRLINSLITNEYTAERILAKLK | not soluble
9 | MGSDKIHHHHHHMDSLTELFCLIDDFCCQFEPALERRLLETGVKKRKRCSGLSLSELMTLTVLFHQLRFRQFKSFYLVYVCRHLQAEFPKLPSYQRCVELLPRCVAPLAALFEMLKGQCDGISIADATAIAVCDNRRIARHRVFADSARRGKTSMGWFYGFKLHAIINSRGELIRLRLTAGNVDDRKPMPDLCQGLFGQLFADKGYLAQWLTEALDQQNLQLITPLRKNMRPVPRTRFEKVILRRRSLIETVFDELKNLCQIEHTRHRSLFNFIVNLMAGIVAYCLSDNKPTLNLTRVNSLAKA | not soluble
10 | MGSDKIHHHHHHMDTQQLKVVSQQVQEQANFPPEFNRLLNELPDEVKHRIFPHLELVQLELGDVVCEAGSKVRYVYFPLNSIISLLYVMENGASAEIAVVGNDGMVGVALFMGGESTTSRAIVQSAGVAYRLFGQRLKDEFNRHGALLHLLLRYSQILLTQMAQTAVCNRHHSIEQQLCRWLLLSIDRLPDDRVMMTQELIANMLGVRREGVTDAAGKLQRIGIINYSRGNIEVLDRKLLEQTCCECYSVVKQESERLMPLKKFTKK | not soluble
11 | MGSDKIHHHHHHMDTQQLYFLNDIGKQKPESIRNRSAACPFCDRENLTDILATEGSIIWLKNKFPTLKDTFQTVLIETDNCEDHIATYTEEHMRSLIRFSIKHWLNLQKNEEFTSVILYKNHGPFSGGSLHHAHMQIIGMKYVNYLDNVEQDNFQGVIVQKNEHIELNISDRPIIGFTEFNIIIEDIGCIDELANYIQQTVRYILTDFHKGCSSYNLFFYYLNEKIICKVVPRFVVSPLYVGYKIPQVSTKIEDVKIQLAAYFTKQNDAIIHKKIE | not soluble
12 | MGSDKIHHHHHHMDTQRIKDDEDAIRSALTSLKTATGIPVTMFATVLQDNRLQITQWVGLRTPALQNLVIEPGVGVGGRVVATRRPVGVSDYTRANVISHEKDSAIQDEGLHSIVAVPVIVHREIRGVLYVGVHSAVRLGDTVIEEVTMTARTLEQNLAINSALRRNGVPDGRGSLKANRVMNGAEWEQVRSTHSKLRMLANRVTDEDLRRDLEELCDQMVTPVRIKQTTKLSARELDVLACVALGHTNVEAAEEMGIGAETVKSYLRSVMRKLGAHTRYEAVNAARRIGALP | not soluble
13 | MGSDKIHHHHHHMDTSSREHDLVIYGATGFVGRLIAVYIAEHAPAGMRVGLAGRSNSRLEAVRAELPAAAHGWALIEASSEDADSIAALAANTRVLFTTVGPYAKHGLPVVEACARAGTHYADLAGEVFFIREAIDCYDALARTSGARIVHSCGYDSVPSDLAVLLLHQAAEADGAGGLVEVQLEARARAGISGGTLESMRGQLDAMRSSTALRSLAADPYALSPDRTREPTTPQPPDAGPVRRSADGTWTAPFIMAPFNTRIVRRSNALQRWAYGRSLQYGEVMGVAPGPAGAVIPRAMALGLRAFTGAMAFPPTRKVLDRFLPAPGTGPSTSTQRAGWFHSQVTARTEDGQRYQAIAAGPGDPGYAATAVMAGETALALALDGDRLPTAKGSLTPATALGNVLIQRLRAAGHTYQVSKLA | not soluble
14 | MGSDKIHHHHHHMDVLTPTPLTYPYEASRPKMALIAEGGGQRGIFTAGVLDAWLDNDFDPFDLFIGTSAGSQNLTSFLSRQKGYAKRLIRGLSRHKRFYQLGRGLVGGNVVDLDWYFDKTTQGSFALDFTAAAKSLGQRELLITATNSRDRQGYFLRPNGDNDHWRELLKASSALPFLYKQGVKLAPWLTASAANQVHTNYDYPQADFYLDGGLAAPLPVREAYRRGARKIVVIRTVNADFHAQSAWVHKLKSWICVSGYCPKTIDYLAQHEQAYEQELAFIANPPDDVEIIQIFADDNLQSKLLGSTDMDLRHDYQTGITAGNAFLHTQKAFYSTHSLHAQPLLESLTIMQSMTA | not soluble
15 | MGSDKIHHHHHHMDVWLQLLQAEPELRSLTDWNRLATRYTDSPKYTARDASGVFIIHTAPLASLARKKREFELLQQLRHDGLPVPEPLDLKQISATAVCYSRYRFLTGKTIQACLPLCRDKAYRLGQETGRLLQWIHQHEVPRATEWAIRCLEKHKRYVALYQAERPLTDDSIILSFIERNIHLIAGRPNRLQHDDVHLGNLITDGEHLVGLIDFSNHDVGDPWHDFVKMGLFQVDDSIPFAVGQVDGYFARDVPELFWRVYSVYLAMACISSIVWTSRHAPEETDQMRRRFECAVPIWYATFDRT | not soluble
16 | MGSDKIHHHHHHMEASSGHQLMAETLGKFVSLVSKRLPDDVMAKLTELKGIETEPLAKSLYACMFENMEKAESLNRPTCQDTGVIQFFVRAGAKFPYLGELRGILKEATILSTKQAPLRLNAVEPFDEKNTGTNVGTKVPWIEWDIVSDDDSVEIEVYMAGGGCSLPGRSIVLPPLAGYEGAVKFVFDTIVEWGINACPPLTVGVGIGTCSTSAAKLSKMAMLRKLGSSNPHPRAAEMERRIQEGLDAIGLGPQGISGHRSVLGVHVEGMAHHPSVLGVGVTVGCWANRHGIIQFNKNLQYTMISHQGVEL | not soluble
17 | MGSDKIHHHHHHMEAYQFIKDYKAHDPYRKSFIQLAKRIFNIDFAPWYEQGFWNDNYICYSYVDKHEVIANVSVNKMELIINGAKQEAIQIGTVMTAPEYRRQGLAKQLLQKALDDYDSAYDLYFLAANQEAIPLYETCGFQLIEENCYEIDMAGYTLLDKPLRRADVSPEAMVEVKKGSCPLSTVLSAQGDEHILMFYYTAGFRDFIYQVNKDVHVMFQLEGDVLHLYDIFSPAKVNVEQLVEQIAPLATKTVVCHFTPDHSVKQLTAKIDSTSSWMVRTTTKGFPPLARFPKISQA | not soluble
18 | MGSDKIHHHHHHMECLLKTTSSVRFGSIHHPCECPANEACPFSIMSLFKRKAASSLETLALAKVGETVRKRLSADPGVYRIPLDDLEIFGVADFFSAEECAKLMAIVDSVARPSPTYSGTDASGRTSYTGDVDPFDPFVLMLQRRIDDLMGIDPSFGETIQGQRYAPGQEFRGHYDHFLPSQPFWDAEQKRGGQRSWTAMAYLNAVEEGGQTEFARVNLSIPPQPGALLIWNNMKPDGTPNANAMHAGMPVVRGTKYVLTKWYRSRPWH | not soluble
19 | MGSDKIHHHHHHMEEEAIVPEVLLDKAIELGLSFTGSTFPISIFPSEIRNIIAEVHECQGFPIDYIASAMLVAIAVGIGNTHLAELKRGWQESTMLYVALVGRPGTNKSHPLSFAMKPFLDFDYQENKLYERSYAEYDNIMRMNRKERIEGGFPDQPTEPMRKRFLVSDITPEGLSFIHAQNKRGLCLWTDELSAWFKNFNRYNSGSEEQFWLSVFSAKATISDRKGNRSSIFIKRPYISVVGTIQKKILGELSKGERSSNGFIDRILFVMPNLQQKARWSRTELPDDTEKRWGGIIRRLIDLPCAKDEEGEVTPEIIPFEEDAKARLYMWQEEHARLCDTEANEVLVGVYCKLEIYIIRFCLIIQLARWVCGESEKSAIDLTSVERAITLTEYFRHSAQQVHAEIAGVQLTQQQQQLLAELPASFQTAEALSIAQKLGMKERAFKDFLSRNIGHLFAKERHGLYHKLNM | not soluble
